Target: activated human plasma kallikrein (Enzyme Research Laboratories) (human) (UniProt P03952)
Experiment: cell-based or functional assay

UniProt P03952, sequence (P03952 20-638 limits assumed): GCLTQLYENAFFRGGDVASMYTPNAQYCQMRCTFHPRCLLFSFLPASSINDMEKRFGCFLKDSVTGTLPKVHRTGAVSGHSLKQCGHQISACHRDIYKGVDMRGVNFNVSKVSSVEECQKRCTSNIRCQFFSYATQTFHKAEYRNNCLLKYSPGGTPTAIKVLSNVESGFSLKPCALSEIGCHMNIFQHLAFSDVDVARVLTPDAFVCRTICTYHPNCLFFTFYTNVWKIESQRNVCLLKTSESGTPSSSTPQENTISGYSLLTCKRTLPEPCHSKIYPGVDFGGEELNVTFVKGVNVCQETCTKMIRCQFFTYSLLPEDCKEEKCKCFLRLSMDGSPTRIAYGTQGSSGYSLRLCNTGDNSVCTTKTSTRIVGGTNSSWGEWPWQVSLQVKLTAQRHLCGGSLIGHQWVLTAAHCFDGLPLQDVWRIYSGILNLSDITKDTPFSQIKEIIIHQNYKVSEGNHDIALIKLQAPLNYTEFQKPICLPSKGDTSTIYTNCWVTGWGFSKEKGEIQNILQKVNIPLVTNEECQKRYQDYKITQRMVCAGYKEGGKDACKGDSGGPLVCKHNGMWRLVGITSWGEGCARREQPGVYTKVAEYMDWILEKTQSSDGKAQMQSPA

- suppression of pKal activity (PFR-AMC fluorogenic kinetic enzymatic assay): 0.1 nM
Substance: Therapeutic antibody (GenScript), human anti-pKal antibody (lanadelumab)
